This is an account of results in doi:10.1101/2025.08.04.668557.

A word on the Kd: it is a measure of binding affinity in units of concentration. A high value points to lower affinity.

Data set [1] relates to Nsp1 N127 (6His-Nsp1(N127)) (SARS-CoV-2). As to the kind of experiment: MST. To be noted: assay buffer not stated ([…].
The subject of data set [2] is Nsp1 full-length (6His-Nsp1) (SARS-CoV-2). As to the kind of experiment: MST. To be noted: assay buffer not stated ([…].

For CoV2 5' UTR 1-50 RNA, the dissociation constant Kd in data set [1] came to 77.8 µM; in data set [2], 6.3 µM.

As to TIAR 5' UTR 1-50 RNA, the Kd in data set [1] was determined as 112 µM; in data set [2], 4.23 µM.
